In patent US20120316071A1 (published 2012):
Where a chain is given by its changes, count along the chain named. Numbers in names are those of the source.

T1: rHuman Erythropoietin R/Fc Chimera, CF (R&D Systems Cat#963-ER) (human, UniProt P19235 25-250)
T1 construct: Bought recombinant protein; also called EPO R; EPO R/Fc; Fc part of the bought chimera not given
T1 sequence (looked up): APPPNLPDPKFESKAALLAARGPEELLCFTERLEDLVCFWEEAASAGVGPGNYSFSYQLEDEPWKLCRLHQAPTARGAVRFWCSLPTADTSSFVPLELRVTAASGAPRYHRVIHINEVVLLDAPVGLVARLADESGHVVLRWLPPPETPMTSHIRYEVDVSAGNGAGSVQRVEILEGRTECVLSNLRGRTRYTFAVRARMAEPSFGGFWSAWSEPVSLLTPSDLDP

B1: Fab VH5-51_IGHD5-18*01>3_IGHJ4*01 G100K/G104T G24T/S28R/G35V & V3-4_IGLJ1*01 (Fab, V domains shown)
VH: EVQLVQSGAEVKKPGESLKISCKTSGYRFTSYWIVWVRQMPGKGLEWMGIIYPGDSDTRYSPSFQGQVTISADKSISTAYLQWSSLKASDTAMYYCARRKYSYTYDYFDYWGQGTLVTVSS
VL: QTVVTQEPSFSVSPGGTVTLTCGLSSGSVSTSYYPSWYQQTPGQAPRTLIYSTNTRSSGVPDRFSGSILGNKAALTITGAQADDESDYYCVLYMGSGISYVFGTGTKVTVL
notes: Fab; Constant parts come from Plasmid A (CH1, His6, Flag) and Plasmid E (lambda CL); also called H:KT TRV & L:wt; H:KT TRV & V3-4_IGLJ1*01
B2: Fab VH5-51_IGHD5-18*01>3_IGHJ4*01 G100K/G104T G24T/S28R/G35V & V3-4_IGLJ1*01 V91L/S96P S52G (Fab, V domains shown)
VH: B1 VH
VL: B1 VL with S52G, V91L, S96P
notes: Fab; Constant parts come from Plasmid A (CH1, His6, Flag) and Plasmid E (lambda CL); also called H:KT TRV & L:LP S52G
B3: Fab VH1-46_IGHD6-6*01_IGHJ1*01 S102A/S103P/S104F/H111F I51V/N52L/S54T/G56H & L6_IGKJ1*01 S28N/S30D/S31H S52L/A55S (Fab, V domains shown)
VH: QVQLVQSGAEVKKPGASVKVSCKASGYTFTSYYMHWVRQAPGQGLEWMGIVLPTGHSTSYAQKFQGRVTMTRDTSTSTVYMELSSLRSEDTAVYYCAREEYAPFSAEYFQFWGQGTLVTVSS
VL: EIVLTQSPATLSLSPGERATLSCRASQNVDHYLAWYQQKPGQAPRLLIYDALNRSTGIPARFSGSGSGTDFTLTISSLEPEDFAVYYCQQRSNWPPWTFGQGTKVEIKR
notes: Fab; Constant parts come from Plasmid A (CH1, His6, Flag) and Plasmid C (kappa CL); also called H:APFF VLTH & L:NDH LS
B4: Fab H:APFF LTH & L6_IGKJ1*01 S28N/S30D/S31H (NDH) (Fab, V domains shown)
VH: B3 VH with V51I
VL: B3 VL with L52S, S55A
notes: Fab; also called H:APFF LTH & L:NDH
B5: Fab H:APFF VLTH & L6_IGKJ1*01 S28N/S30D/S31H S52L/A55G (NDH LG) (Fab, V domains shown)
VH: B3 VH
VL: B3 VL with S55G
notes: Fab; also called H:APFF VLTH & L:NDH LG
B6: Fab VH1-46_IGHD6-6*01_IGHJ1*01 S102A/S103P/S104F/H111F I51V/N52L/S54T/G56H (H:APFF VLTH) & L6_IGKJ1*01 S28N/S30D/S31H S52L/A55S (L:NDH LS) (Fab, V domains shown)
VH: B3 VH
VL: B3 VL
notes: Fab; also called H:APFF VLTH & L:NDH LS
B7: Fab H:APFF LTH & L6_IGKJ1*01 S28N/S30D/S31H S52L/A55G (NDH LG) (Fab, V domains shown)
VH: B3 VH with V51I
VL: B3 VL with S55G
notes: Fab; also called H:APFF LTH & L:NDH LG
B8: Fab H:APFF VLTH & L6_IGKJ1*01 S28N/S30D/S31H (NDH) (Fab, V domains shown)
VH: B3 VH
VL: B3 VL with L52S, S55A
notes: Fab; also called H:APFF VLTH & L:NDH
B9: Fab H:APFF LTH & L6_IGKJ1*01 S28N/S30D/S31H S52L/A55S (NDH LS) (Fab, V domains shown)
VH: B3 VH with V51I
VL: B3 VL
notes: Fab; also called H:APFF LTH & L:NDH LS
B10: Fab VH5-51_IGHD5-18*01>3_IGHJ4*01 G100K/G104T/G24T/S28R/G35V (KT TRV) & V3-4_IGLJ1*01 (Fab, V domains shown)
VH: B1 VH
VL: B1 VL
notes: Fab; also called H:KT TRV & L:wt; H:KT TRV & V3-4_IGLJ1*01
B11: Fab VH5-51_IGHD5-18*01>3_IGHJ4*01 G100K/G104T G24T/S28R/G35V (H:KT TRV) & V3-4_IGLJ1*01 V91L/S96P S52G (L:LP S52G) (Fab, V domains shown)
VH: B1 VH
VL: B1 VL with S52G, V91L, S96P
notes: Fab; also called H:KT TRV & L:LP S52G
B12: Fab VH5-51_IGHD5-18*01>3_IGHJ4*01 G100K/G104T G24T/S28R/G35V (H:KT TRV) & V3-4_IGLJ1*01 V91L/S96P (L:LP) (Fab, V domains shown)
VH: B1 VH
VL: B1 VL with V91L, S96P
notes: Fab; also called H:KT TRV & L:LP
B13: Fab VH3-23_IGHD2-21*01>3_IGHJ6*01 H100E/S108P/Y113G (EPG) Y109D & V2-13_IGLJ2*01 (Fab, V domains shown)
VH: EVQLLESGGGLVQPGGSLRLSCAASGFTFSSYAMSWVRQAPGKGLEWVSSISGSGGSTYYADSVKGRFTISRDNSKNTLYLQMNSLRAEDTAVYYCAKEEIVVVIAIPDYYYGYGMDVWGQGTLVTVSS
VL: SSELTQDPAVSVALGQTVRITCQGDSLRSYYASWYQQKPGQAPVLVIYGKNNRPSGIPDRFSGSSSGNTASLTITGAQAEDEADYYCNSRDSSGNHLVVFGGGTKLTVL
notes: Fab; NNK mutant of the EPG heavy chain; CH1 (tags) and lambda CL come from the vectors
B14: Fab VH3-23_IGHD2-21*01>3_IGHJ6*01 H100E/S108P/Y113G (EPG) Y109L & V2-13_IGLJ2*01 (Fab, V domains shown)
VH: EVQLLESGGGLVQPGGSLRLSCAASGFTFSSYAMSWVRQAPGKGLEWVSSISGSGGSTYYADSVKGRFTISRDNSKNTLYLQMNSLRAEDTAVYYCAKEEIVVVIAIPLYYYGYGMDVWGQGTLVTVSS
VL: B13 VL
notes: as for B13
B15: Fab VH3-23_IGHD2-21*01>3_IGHJ6*01 H100E/S108P/Y113G (EPG) Y109T & V2-13_IGLJ2*01 (Fab, V domains shown)
VH: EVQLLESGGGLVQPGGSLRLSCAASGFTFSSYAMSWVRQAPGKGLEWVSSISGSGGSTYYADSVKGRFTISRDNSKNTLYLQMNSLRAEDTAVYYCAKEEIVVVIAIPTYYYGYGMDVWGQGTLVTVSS
VL: B13 VL
notes: as for B13
B16: Fab VH3-23_IGHD2-21*01>3_IGHJ6*01 H100E/S108P/Y113G (EPG) Y109H & V2-13_IGLJ2*01 (Fab, V domains shown)
VH: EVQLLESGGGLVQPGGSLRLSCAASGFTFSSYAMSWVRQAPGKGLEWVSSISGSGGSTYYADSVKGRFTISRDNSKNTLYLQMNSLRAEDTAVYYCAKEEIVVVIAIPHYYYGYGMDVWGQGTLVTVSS
VL: B13 VL
notes: as for B13
B17: Fab VH3-23_IGHD2-21*01>3_IGHJ6*01 H100E/S108P/Y113G (EPG) Y109Q & V2-13_IGLJ2*01 (Fab, V domains shown)
VH: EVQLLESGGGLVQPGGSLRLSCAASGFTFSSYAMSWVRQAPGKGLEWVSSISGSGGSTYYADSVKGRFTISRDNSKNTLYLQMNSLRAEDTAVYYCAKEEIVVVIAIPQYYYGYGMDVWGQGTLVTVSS
VL: B13 VL
notes: as for B13

Each binder was assayed against T2, full-length human DLL4 expressed on the surface of CHO cells (human, UniProt Q9NR61 26-685) (assay: competition, flow cytometry; 250 nM biotinylated Notch-Fc as competitor on CHO-DLL4 cells, streptavidin-PE).
T2 construct: also called CHO-DLL4; DLL4-expressing CHO cells

signal of biotinylated Notch-Fc bound to CHO-DLL4 cells at 2 nM Fab (read-out not given) | signal of biotinylated Notch-Fc bound to CHO-DLL4 cells at 10 nM Fab (read-out not given) | Binder
448 | 244 | B1
250 | 190 | B2
117 | 30 | B3

The binders below were run against T3, Recombinant Human DLL4 (R&D Systems Cat#1506-D4/CF) (human, UniProt Q9NR61 27-524) (assay: ELISA titration, 3-fold dilutions from 20 nM Fab).
T3 construct: bought recombinant protein; also called rHuman DLL4; delta-like protein 4

fold binding affinity against the antibody mutants with heavy chain H:APFF ALTH | Binder
~10 fold | B4
~10 fold | B5
~10 fold | B6
~10 fold | B7
~10 fold | B8
~10 fold | B9

Each binder was assayed against T3, Recombinant Human DLL4 (R&D Systems …) (assay: SPR).

fold binding affinity against the parental Fab | fold binding affinity against the parent Fab | Binder
130 fold | – | B10
1000 fold | – | B11
1000 fold | – | B12
– | 430 fold | B6

These binders were tested against T1, rHuman Erythropoietin R/Fc Chimera, CF … (assay: ECL multispot (MSD), 20 nM Fab;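 note: purified Fab binding to antigens on multispot plates, read by electrochemiluminescence with a TAG-labelled detection antibody, 1 h Fab incubation at 20 °C, signal expressed relative to each well's blank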).

ECL signal ratio (column head gives no unit) | Binder
2 | B13
22.1 | B14
6 | B15
18.3 | B16
3.1 | B17

What follows are binders tested against T4, rHuman Notch-1/Fc Chimera, CF (R&D Systems Cat#3647-TK) (human, UniProt P46531 19-526) (assay: ECL multispot (MSD), 20 nM Fab;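 note: purified Fab binding to antigens on multispot plates, read by electrochemiluminescence with a TAG-labelled detection antibody, 1 h Fab incubation at 20 °C, signal expressed relative to each well's blank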).
T4 construct: Bought recombinant protein; Fc part of the bought chimera not given

ECL signal ratio (column head gives no unit) | Binder
1.3 | B13
1.9 | B14
1.7 | B15
1.2 | B16
1.3 | B17

The binders below were run against T5, rHuman ErbB2/Fc Chimera, CF (R&D Systems Cat#1129-ER) (human, UniProt P04626 23-652) (assay: ECL multispot (MSD), 20 nM Fab;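 note: purified Fab binding to antigens on multispot plates, read by electrochemiluminescence with a TAG-labelled detection antibody, 1 h Fab incubation at 20 °C, signal expressed relative to each well's blank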).
T5 construct: Bought recombinant protein; also called human epidermal growth factor 2 receptor; Fc part of the bought chimera not given

ECL signal ratio (column head gives no unit) | Binder
1.3 | B13
1.7 | B15
1.7 | B16
1.3 | B17

What follows are binders tested against T6, Recombinant Human DLL4 (R&D Systems Cat#1506-D4/CF) (human, UniProt Q9NR61 27-524) (assay: ECL multispot (MSD), 20 nM Fab;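 note: purified Fab binding to antigens on multispot plates, read by electrochemiluminescence with a TAG-labelled detection antibody, 1 h Fab incubation at 20 °C, signal expressed relative to each well's blank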).
T6 construct: Bought recombinant protein; also called delta-like protein 4; rHuman DLL4

ECL signal ratio (column head gives no unit) | Binder
1.4 | B13
2 | B14
1.5 | B15
1.4 | B16
1.2 | B17

These binders were tested against T7, rHuman P-Cadherin/Fc Chimera, CF (R&D Systems Cat#861-PC) (human, UniProt P22223 108-654) (assay: ECL multispot (MSD), 20 nM Fab).
T7 construct: Bought recombinant protein; Fc part of the bought chimera not given

ECL signal ratio (column head gives no unit) | Binder
1.8 | B13
4 | B14
2.1 | B15
3.9 | B16
2.2 | B17

These binders were tested against T8, rHuman EGF R/Fc Chimera, CF (R&D Systems Cat#344-ER) (human, UniProt P00533 25-645) (assay: ECL multispot (MSD), 20 nM Fab).
T8 construct: Bought recombinant protein; also called epidermal growth factor receptor; Fc part of the bought chimera not given

ECL signal ratio (column head gives no unit) | Binder
1.4 | B13
1.4 | B15
1.4 | B16
1.7 | B17

These binders were tested against T9, rHuman IGF-1 sR, (IGF-1 sR), CF (R&D Systems Cat#391-GR) (human, UniProt P08069 31-932) (assay: ECL multispot (MSD), 20 nM Fab).
T9 construct: Bought recombinant soluble receptor; also called insulin-like growth factor-1 soluble receptor

ECL signal ratio (column head gives no unit) | Binder
1.4 | B13
1.7 | B14
1.3 | B15
1.2 | B16
1.1 | B17

What follows are binders tested against T10, rHuman CD44/Fc Chimera, CF (R&D Systems Cat#3660-CD) (human, UniProt P16070 21-220) (assay: ECL multispot (MSD), 20 nM Fab).
T10 construct: Bought recombinant protein; Fc part of the bought chimera not given

ECL signal ratio (column head gives no unit) | Binder
1 | B13
1.6 | B14
1.1 | B15
1.1 | B16
1.3 | B17
